According to US12072338B2, “Pharmaceutical peptides for the treatment of inflammatory diseases” (PROTAGONISTS LTD., priority 2007, dated 2024):

Assays:
[1] = molecular target: T1, MCP-1 (Homo sapiens, UniProt P13500); assay: Micro-array analysis of chemokine binding peptides: MCP-1
T1 construct: purchased 300-04
Procedure: (§1) (1) Printing: Chemokine (CK) solution (in water) was serially diluted with Print Reagent (GenTel BioSurfaces USA) to final concentrations of 50 μg and 25 μg/ml. BSA/BSA-Biotin control solutions (in water) were diluted with Print Reagent to 100 μg/ml. Amplified stock of M13 phage control (M13KEgIII Cloning Vector, New England Biolabs, Cat.No.E8101S) was stored in Tris Buffered Saline (TBS; pH7.5, 4° C.) and diluted with Print Reagent to the working titre (10^8 pfu/μl). An automated spotting robot (16 pin print tool, 0.4 mm head; BioRobotics, UK) was used to print the CK/BSA control/M13 control, 5 repeats per sample (CK 25 μg/ml and 50 μg/ml; BSA 100 μg/ml; M13 20 μl), on PATH Protein Microarray Slides (GenTel, Prod.No. 2-1005/-1025) at […], and 50-70% relative humidity. Printed micro-array slides were stored at Room Temperature (RT) or 4° C. for at least 24 h before use.
(§2) (2) Blocking: Block Buffer (500 μl/partition; PATHblock, GenTel, Prod.No. 2-1014) was applied to the slide for 1 hour at room temp (RT). After removal of Block Buffer, the slide was air dried for 25 minutes;
(§3) (3) Phage Presented Peptide Binding: Amplified recombinant phage stock was stored in TBS and diluted with Wash Buffer to working titer (10^7 pfu/μl). Recombinant phage suspension (300 μl) was applied per partition and incubated at RT for 1 hour with gentle agitation.
(§4) (4) First Washing: The slides were washed twice with Wash Buffer 300 μl/partition).
(§5) (5) Primary Antibody (Ab) Labeling: The slides were incubated with the Primary Ab (1 mg/ml diluted ×2500 (Wash Reagent), 300 μl; Mouse Anti-M13 monoclonal Ab; Amersham Biosciences, UK; Product Code 27-9420-01) for 45 minutes at RT.
(§6) (6) Second Washing: The slides were washed twice with Wash Buffer (300 μl/partition).
(§7) (7) Secondary Ab Labeling: The slides were incubated with Secondary Ab (1.5 mg/ml diluted ×5000 (Wash Reagent), 300 μl; Cy3-conjugated AffiniPure Goat Anti-Mouse IgG; Jackson ImmunoReserch Labs, USA; Product Code 115-165-062).
(§8) (8) Third Washing: The slides were washed twice with Wash Buffer (300 μl/partition).
(§9) (9) Rinse: the slides were rinsed twice with Rinse Buffer (PATHrinse, GenTel, Prod.No. 2-1018) then dried well.
(§10) (10) Scanning: The peptide-bound, labeled slide was scanned (Laser Intensity 80%, Gain 80%, Resolution 10 μm) with a ScanArray Life Scanner (Packard BioChip Technologies, USA).
(§11) (11) Analysis: Quantitative analysis of micro-array was performed by the SpotReader program of Niles Scientific (USA) and presented as Relative Fluorescence (RF) as a function of CK concentration. Micro-array readout (Cy3 fluorescence) was quantified to determine the relative binding affinities of a CBP for the CKs and by inference, the specificity of the CBP for binding to a CK.

[2] = tested on: IL-8; assay: Micro-array analysis of chemokine binding peptides: IL-8
IL-8, sequence (P10145 28-99 limits assumed): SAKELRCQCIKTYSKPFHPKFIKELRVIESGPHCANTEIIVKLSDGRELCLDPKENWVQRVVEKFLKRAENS
Procedure: as §1, §2, §3, §4, §5, §6, §7, §8, §9, §10, §11

[3] = molecular target: T2, TECK (Homo sapiens, UniProt O15444); assay: Micro-array analysis of chemokine binding peptides: TECK
T2 construct: purchased 300-45
T2 sequence (O15444 24-150): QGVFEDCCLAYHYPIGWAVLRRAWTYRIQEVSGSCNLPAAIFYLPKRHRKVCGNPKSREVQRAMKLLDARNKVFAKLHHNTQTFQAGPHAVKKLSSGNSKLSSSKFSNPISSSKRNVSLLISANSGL
Procedure: as §1, §2, §3, §4, §5, §6, §7, §8, §9, §10, §11

[4] = molecular target: T3, GRO-β (Homo sapiens, UniProt P19875); assay: Micro-array analysis of chemokine binding peptides: GRO-β
T3 construct: purchased 300-39
T3 sequence (P19875 35-107): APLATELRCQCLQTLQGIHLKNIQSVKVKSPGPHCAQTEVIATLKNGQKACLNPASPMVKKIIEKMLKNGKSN
Procedure: as §1, §2, §3, §4, §5, §6, §7, §8, §9, §10, §11

[5] = molecular target: T4, MCP-2 (Homo sapiens, UniProt P80075); assay: Micro-array analysis of chemokine binding peptides: MCP-2
T4 construct: purchased 300-15
T4 sequence (P80075 24-99): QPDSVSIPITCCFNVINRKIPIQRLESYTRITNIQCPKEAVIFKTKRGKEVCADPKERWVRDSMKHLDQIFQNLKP
Procedure: as §1, §2, §3, §4, §5, §6, §7, §8, §9, §10, §11

[6] = molecular target: T5, Mig (Homo sapiens, UniProt Q07325); assay: Micro-array analysis of chemokine binding peptides: Mig; conditions: limit = start of the upper 75% of that peptide's response range
T5 construct: purchased 300-26
T5 sequence (Q07325 23-125): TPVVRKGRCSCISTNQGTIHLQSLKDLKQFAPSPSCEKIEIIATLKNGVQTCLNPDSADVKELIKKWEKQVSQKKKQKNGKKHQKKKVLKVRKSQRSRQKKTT
Procedure: as §1, §2, §3, §4, §5, §6, §7, §8, §9, §10, §11

[7] = molecular target: T6, RANTES (Homo sapiens, UniProt P13501); assay: Micro-array analysis of chemokine binding peptides: RANTES
T6 construct: purchased 300-06
T6 sequence (P13501 24-91): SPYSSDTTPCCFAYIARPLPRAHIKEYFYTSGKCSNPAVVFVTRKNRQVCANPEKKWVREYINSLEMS
Procedure: as §1, §2, §3, §4, §5, §6, §7, §8, §9, §10, §11

[8] = molecular target: T7, Eotaxin 2 (Homo sapiens, UniProt O00175); assay: Micro-array analysis of chemokine binding peptides: Eotaxin 2
T7 construct: purchased 300-33
T7 sequence (O00175 27-119): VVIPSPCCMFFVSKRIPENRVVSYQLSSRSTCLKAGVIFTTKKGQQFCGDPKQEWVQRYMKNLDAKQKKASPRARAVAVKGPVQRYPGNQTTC
Procedure: as §1, §2, §3, §4, §5, §6, §7, §8, §9, §10, §11

[9] = molecular target: T8, Fractalkine (Homo sapiens, UniProt P78423); assay: Micro-array analysis of chemokine binding peptides: Fractalkine
T8 construct: purchased 300-31
T8 sequence (P78423 25-100 limits assumed): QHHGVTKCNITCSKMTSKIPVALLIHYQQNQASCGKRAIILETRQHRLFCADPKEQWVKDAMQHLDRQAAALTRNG
Procedure: as §1, §2, §3, §4, §5, §6, §7, §8, §9, §10, §11

[10] = molecular target: T9, I-TAC (Homo sapiens, UniProt O14625); assay: Micro-array analysis of chemokine binding peptides: I-TAC; conditions: limit = start of the upper 75% of that peptide's response range
T9 construct: purchased 300-46
T9 sequence (O14625 22-94): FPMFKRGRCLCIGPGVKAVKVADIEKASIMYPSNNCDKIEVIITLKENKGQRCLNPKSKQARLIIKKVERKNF
Procedure: as §1, §2, §3, §4, §5, §6, §7, §8, §9, §10, §11

[11] = molecular target: T10, MCP-4 (Homo sapiens, UniProt Q99616); assay: Micro-array analysis of chemokine binding peptides: MCP-4
T10 construct: purchased 300-24
T10 sequence (Q99616 17-98): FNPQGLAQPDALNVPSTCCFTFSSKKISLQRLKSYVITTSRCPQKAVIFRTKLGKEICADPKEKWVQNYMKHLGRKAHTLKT
Procedure: as §1, §2, §3, §4, §5, §6, §7, §8, §9, §10, §11

[12] = molecular target: T11, Eotaxin 3 (Homo sapiens, UniProt Q9Y258); assay: Micro-array analysis of chemokine binding peptides: Eotaxin 3
T11 construct: purchased 300-48
T11 sequence (Q9Y258 24-94): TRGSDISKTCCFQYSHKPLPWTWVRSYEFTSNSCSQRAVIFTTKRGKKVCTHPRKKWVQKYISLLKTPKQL
Procedure: as §1, §2, §3, §4, §5, §6, §7, §8, §9, §10, §11

[13] = molecular target: T12, Exodus-2 (Homo sapiens, UniProt O00585); assay: Micro-array analysis of chemokine binding peptides: Exodus-2
T12 construct: purchased 300-35
T12 sequence (O00585 24-134): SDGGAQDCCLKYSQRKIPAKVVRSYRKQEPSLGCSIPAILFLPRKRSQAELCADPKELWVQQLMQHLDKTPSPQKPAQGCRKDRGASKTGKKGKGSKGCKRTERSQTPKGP
Procedure: as §1, §2, §3, §4, §5, §6, §7, §8, §9, §10, §11

[14] = molecular target: T13, Eotaxin (Homo sapiens, UniProt P51671); assay: Micro-array analysis of chemokine binding peptides: Eotaxin
T13 construct: purchased 300-21
T13 sequence (P51671 24-97): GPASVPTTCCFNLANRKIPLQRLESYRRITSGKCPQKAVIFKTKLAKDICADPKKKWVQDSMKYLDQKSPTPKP
Procedure: as §1, §2, §3, §4, §5, §6, §7, §8, §9, §10, §11

[15] = molecular target: T14, Lymphotactin (Homo sapiens, UniProt P47992); assay: Micro-array analysis of chemokine binding peptides: Lymphotactin
T14 construct: purchased 300-20
T14 sequence (P47992 22-114): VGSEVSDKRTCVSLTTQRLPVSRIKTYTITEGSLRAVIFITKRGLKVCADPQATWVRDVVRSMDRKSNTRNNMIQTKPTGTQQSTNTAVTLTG
Procedure: as §1, §2, §3, §4, §5, §6, §7, §8, §9, §10, §11

[16] = molecular target: T15, BCA-1 (Homo sapiens, UniProt O43927); assay: Micro-array analysis of chemokine binding peptides: BCA-1
T15 construct: purchased 300-47
T15 sequence (O43927 23-109): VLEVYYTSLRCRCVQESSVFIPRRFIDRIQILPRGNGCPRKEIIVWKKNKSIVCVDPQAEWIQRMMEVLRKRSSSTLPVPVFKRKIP
Procedure: as §1, §2, §3, §4, §5, §6, §7, §8, §9, §10, §11

[17] = molecular target: T16, IP-10 (Homo sapiens, UniProt P02778); assay: Micro-array analysis of chemokine binding peptides: IP-10; conditions: limit = start of the upper 75% of that peptide's response range
T16 construct: purchased 300-12
T16 sequence (P02778 22-98): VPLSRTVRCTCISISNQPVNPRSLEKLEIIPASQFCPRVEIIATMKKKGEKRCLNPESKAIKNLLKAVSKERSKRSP
Procedure: as §1, §2, §3, §4, §5, §6, §7, §8, §9, §10, §11

[18] = limit = start of the upper 75% of that peptide's response range

T1 sequence (P13500 24-99): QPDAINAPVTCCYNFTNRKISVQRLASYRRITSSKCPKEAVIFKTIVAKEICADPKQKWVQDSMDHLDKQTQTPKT

Sequence | binding to TECK, stated in words [3] | binding to Mig with relatively high affinity (Relative Fluorescence Units) [6] | binding to RANTES, stated in words [7] | binding to Fractalkine, stated in words [9] | binding to Eotaxin 3, stated in words [12] | binding to Exodus-2, stated in words [13] | binding to Eotaxin, stated in words [14] | binding to Lymphotactin, stated in words [15] | binding to BCA-1, stated in words [16] | further results
SYYDDVGL [Ph-p27] | bound | > 15,000 RFU | bound | bound | bound | bound | bound | bound | bound | binding to MCP-1, stated in words [1]: bound; binding to IL-8, stated in words [2]: bound; binding to GRO-β, stated in words [4]: bound; binding to MCP-2, stated in words [5]: bound; binding to Eotaxin 2, stated in words [8]: bound; binding to I-TAC with relatively high affinity (Relative Fluorescence Units) [10]: > 15,000 RFU; binding to MCP-4, stated in words [11]: bound
WVFGHGMCK [Ph-p25] | bound | > 15,000 RFU | bound | bound | bound | bound | bound | bound | bound | binding to MCP-1 with relatively high affinity (Relative Fluorescence Units) [1, 18]: > 15,000 RFU; binding to IL-8 with relatively high affinity (Relative Fluorescence Units) [2, 18]: > 15,000 RFU; binding to GRO-β with relatively high affinity (Relative Fluorescence Units) [4, 18]: > 15,000 RFU; binding to MCP-2 with relatively high affinity (Relative Fluorescence Units) [5, 18]: > 15,000 RFU; binding to IP-10 with relatively high affinity (Relative Fluorescence Units) [17]: > 15,000 RFU; binding to MCP-4 with relatively high affinity (Relative Fluorescence Units) [11, 18]: > 15,000 RFU
